Results published in US20170042969A1.

Target: ornithine decarboxylase (ODC) present in Xenopus laevis oocytes
Experiment: cell-based or functional assay

IC50 for down-regulation of hSGLT1 at low intracellular AMG, against hRS1-Reg wildtype [times] | affinity for down-regulation of hSGLT1 in the presence of intracellular glucose, against hRS1-Reg wildtype [times] | change of IC50 for down-regulation of hSGLT1 at high intracellular AMG (~250 µM) against low AMG [fold] | increase of affinity for down-regulation of hSGLT1 against hRS1-Reg wildtype or hRS1-Reg(S20A) [fold] | decrease of affinity for down-regulation of hSGLT1 at high intracellular glucose [fold] | Binder
6300 | 1.5e+07 | 300 | 4000 to 6000 |  | hRS1-Reg(S20E) (protein, not shown: small tags and cut ends) SSGQEPDVGNPMSLARSVSASVCPIKPSDSDRIEPKAVKALKASAEFQLNSEKKEHLSLQDLSDHASSADHAPTDQSPAMPMQ
 |  |  |  | 7 to 8 | hRS1-Reg(S20A) (protein, not shown: small tags and cut ends) SSGQAPDVGNPMSLARSVSASVCPIKPSDSDRIEPKAVKALKASAEFQLNSEKKEHLSLQDLSDHASSADHAPTDQSPAMPMQ
